This test addresses T1, human Angiotensin II type 1 receptor (AT1R) (human, UniProt P30556 1-359, limits assumed).
T1 sequence (looked up): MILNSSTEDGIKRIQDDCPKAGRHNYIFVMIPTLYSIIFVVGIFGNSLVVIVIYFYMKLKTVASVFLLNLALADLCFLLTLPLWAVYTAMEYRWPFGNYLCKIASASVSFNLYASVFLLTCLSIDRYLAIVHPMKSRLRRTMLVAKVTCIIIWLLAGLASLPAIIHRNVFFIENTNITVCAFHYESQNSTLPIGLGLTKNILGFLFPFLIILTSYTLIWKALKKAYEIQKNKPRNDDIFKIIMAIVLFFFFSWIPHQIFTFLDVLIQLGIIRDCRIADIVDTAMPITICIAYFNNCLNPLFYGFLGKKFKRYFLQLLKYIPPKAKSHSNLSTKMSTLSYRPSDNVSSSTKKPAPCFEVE
Put plainly: cell-based or functional assay.

Data on one molecule can be found in patent US20130274191A1 (THOMAS JEFFERSON UNIVERSITY, published 2013).

Non-standard residues stand in square brackets, D forms with d. No end group written: not given here. Sar = CNCC(=O)O

B1: CORET: Sar^1,Cys(Et)^5,Leu^8-AngII (peptide)
peptide: [Sar]RVY[Cys(Et)]HPL
For B1, the “βarr activation by the AT1R, potency relative to AngII” value is 10 times less potent than AngII.
